One may read the Kd as the free concentration of one partner at which half of the binding sites on the other are occupied at equilibrium, for simple one-to-one binding. High values mean lower affinity, low ones higher affinity. Broadly, the stoichiometry N is the number of molecules, sites or subunits per partner or assembly. In general, Ki refers to the equilibrium dissociation constant of an inhibitor or competing ligand from its target. A higher Ki goes with weaker binding. Usually koff stands for the first-order rate constant of dissociation. In general, kon refers to the rate constant with which the complex forms. Low readings indicate slower complex formation, high ones faster complex formation.

Square brackets hold non-standard residues; d marks the D form. Ends that are not written are not given here. Peptide text beside a SMILES is read from it. * marks the point of attachment. FITC = O=C1OC2(c3ccc(O)cc3Oc3cc(O)ccc32)c2ccc(NC(=S)*)cc21; Biotin = O=C1N[C@H]2[C@H](CS[C@H]2CCCCC(=O)*)N1; pT = C[C@@H](OP(=O)(O)O)[C@H](N)C(=O)O

The values that follow come from PMC5479578 (Biochemistry, 2017).

Test [1] concerns the target T1, PDZ2 of NHERF1 (Homo sapiens, UniProt O14745).
T1 sequence (O14745 133-300): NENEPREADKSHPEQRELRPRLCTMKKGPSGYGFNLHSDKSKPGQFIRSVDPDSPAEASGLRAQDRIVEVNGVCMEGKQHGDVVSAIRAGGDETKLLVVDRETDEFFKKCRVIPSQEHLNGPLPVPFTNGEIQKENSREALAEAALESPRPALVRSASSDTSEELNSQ
The test is described as follows: Surface plasmon resonance, NHERF1 PDZ2. In kind it is binding. On the technique in general: SPR reads the build-up and loss of mass on a sensor chip optically.

In test [2] the target is NHERF1 PDZ1 domain (1-140) (human) (UniProt O14745). The test can be described thus: ITC. (ITC needs no label: the signal is the heat of the interaction.)
The target of test [3] is NHERF1 PDZ2 domain (133-300) (human) (UniProt O14745). The test is described as follows: ITC.
The target in a further test is T2, PDZ1 of NHERF1 (Homo sapiens, UniProt O14745).
T2 sequence (O14745 1-140): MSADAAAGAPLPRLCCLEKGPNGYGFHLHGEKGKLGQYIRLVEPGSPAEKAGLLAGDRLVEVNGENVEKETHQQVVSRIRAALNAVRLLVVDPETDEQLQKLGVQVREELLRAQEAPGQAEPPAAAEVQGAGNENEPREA
The test is described as follows: Isothermal titration calorimetry, NHERF1 PDZ1. In kind it is binding.

Test [4] has as its target T1, PDZ2 of NHERF1. The test can be described thus: Isothermal titration calorimetry, NHERF1 PDZ2. Type of test: binding.
The subject of the next test is PTHR. The test is described as follows: Mass spectrometry of PTHR phosphorylation in cell lysates. Type of test: cell-based. Conditions: PTH(1–34) treatment; MS-MS of cell lysates.
The target in test [5] is T3, NHERF1 PDZ2 domain (133-300) (human, UniProt O14745 133-300).
T3 sequence (looked up): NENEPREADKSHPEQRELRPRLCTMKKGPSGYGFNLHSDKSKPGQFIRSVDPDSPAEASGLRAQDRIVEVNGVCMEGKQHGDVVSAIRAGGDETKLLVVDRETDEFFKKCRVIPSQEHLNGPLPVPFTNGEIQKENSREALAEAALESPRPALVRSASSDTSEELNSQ
The test can be described thus: fluorescence polarisation.

Test [6] deals with T4, NHERF1 PDZ1 domain (1-140) (human, UniProt O14745 1-140).
T4 sequence (looked up): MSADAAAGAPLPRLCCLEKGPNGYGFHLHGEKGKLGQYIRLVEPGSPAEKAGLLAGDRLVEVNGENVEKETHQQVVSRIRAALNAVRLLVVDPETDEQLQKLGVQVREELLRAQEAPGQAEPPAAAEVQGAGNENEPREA
The test can be described thus: fluorescence polarisation. Background: In fluorescence polarisation assays a small probe gives low polarisation when free and higher when bound to something large.

In test [7] the target is T3, NHERF1 PDZ2 domain (133-300). The test is described as follows: fluorescence polarisation. The source holds these as a separate data set.
In test [8] the target is T4, NHERF1 PDZ1 domain (1-140). The test can be described thus: fluorescence polarisation. This is another data set of the same source.
The target of test [9] is T3, NHERF1 PDZ2 domain (133-300). The test is described as follows: fluorescence polarisation. This is another data set of the same source.
Test [10] deals with T4, NHERF1 PDZ1 domain (1-140). The test is described as follows: fluorescence polarisation. The source holds these as a separate data set.
In test [11] the target is T3, NHERF1 PDZ2 domain (133-300). The test can be described thus: fluorescence polarisation. The source holds these as a separate data set.
For test [12], the target named is T4, NHERF1 PDZ1 domain (1-140). The test can be described thus: fluorescence polarisation. The source holds these as a separate data set.
In test [13] the target is T4, NHERF1 PDZ1 domain (1-140). The test can be described thus: fluorescence polarisation. This is another data set of the same source.
In test [14] the target is T3, NHERF1 PDZ2 domain (133-300). The test can be described thus: ITC.
Test [15] concerns the target T4, NHERF1 PDZ1 domain (1-140). The test can be described thus: ITC.
Test [16] concerns the target T3, NHERF1 PDZ2 domain (133-300). The test can be described thus: fluorescence polarisation. This is another data set of the same source.
The target is the same in test [17]. The test can be described thus: SPR.
For test [18], the target named is T4, NHERF1 PDZ1 domain (1-140). The test is described as follows: SPR.
The target in test [19] is T3, NHERF1 PDZ2 domain (133-300). The test is described as follows: SPR. This is another data set of the same source.
Test [20] addresses T4, NHERF1 PDZ1 domain (1-140). The test can be described thus: SPR. The source holds these as a separate data set.

`CSCC[C@H](NC(=O)[C@@H](NC(=O)[C@@H](NC(=O)[C@H](CCC(=O)O)NC(=O)[C@H](Cc1c[nH]c2ccccc12)NC(=O)[C@H](CCC(=O)O)NC(=O)[C@H](CCC(=O)O)NC(=O)[C@H](CCC(N)=O)NC(=O)[C@H](CC(C)C)NC(=O)[C@H](CC(C)C)NC(=O)[C@H](C)NC(=O)[C@@H]1CCCN1C(=O)[C@@H]1CCCN1C(=O)[C@H](CCCNC(=N)N)NC(=O)[C@H](CCC(=O)O)NC(=O)[C@@H]1CCCN1C(=O)CNC(=O)[C@H](CO)NC(=O)[C@H](C)NC(=O)[C@H](CCC(=O)O)NC(=O)[C@H](CCC(=O)O)NC(=O)[C@H](CC(=O)O)NC(=O)CCCC[C@@H]1SC[C@@H]2NC(=O)N[C@@H]21)[C@@H](C)O)C(C)C)C(=O)O` [b-PTHRct-22] (Biotin-DEEASGPERPPALLQEEWETVM-OH): the Kd on PDZ2 of NHERF1 [1] was determined as 11.5 ± 0.4 µM.

In [2], PTHRct-8 peptide with Ala at Glu-3 showed a Kd of 34.2 µM and a stoichiometry N of 1.15. Also, in [3], the Kd was found to be 35.5 µM, the dH was -8.6 kcal/mol and the stoichiometry N is 0.88.

Turning to PTHRct-8 peptide with Ala at Glu-5, in [2], the dissociation constant Kd is 25.5 µM, the dH was -7.6 kcal/mol and the stoichiometry N came out at 1.21. Moreover, in test [3], the dissociation constant (Kd) was 26.8 µM and the dH was -10.3 kcal/mol.

Turning to PTHRct-8 peptide with Ala at Glu-6, in [2], the equilibrium dissociation constant (Kd) turned out to be 13.1 µM, the dH was -4.3 kcal/mol and the stoichiometry N amounted to 1.1. Also, in test [3], the Kd stood at 18.1 µM and the stoichiometry N worked out at 1.12.

Turning to “PTHRct-8 peptide with Ala at Glu-6 and Glu-5”, in test [2], the Kd is 24.4 µM, the dH is -3.8 kcal/mol and the stoichiometry N came out at 1.26. In test [3], the dissociation constant Kd was determined as 57.8 µM, the dH was -7.2 kcal/mol and the stoichiometry N is 1.26.

QAAWETVM [QAAWETVM] displayed a Kd on PDZ1 of NHERF1 of 24.4 ± 0.6 µM.

For QAEWETVM [QAEWETVM], the Kd on PDZ1 of NHERF1 was determined as 13.1 ± 1.7 µM; at PDZ2 of NHERF1 [4], 18.1 ± 2.4 µM.

On to QEAWATVM, for which the “n (stoichiometry)” value on PDZ1 of NHERF1 (ITC, PDZ1, 25 °C, mean ± S.E.M. (n = 3)) was determined as 1.12 ± 0.03; on PDZ2 of NHERF1 [4] (ITC, PDZ2, 25 °C, mean ± S.E.M. (n = 3)), 1.04 ± 0.02.

Take QEAWETVM [QEAWETVM]: the dissociation constant Kd is 25.5 ± 1.1 µM on PDZ1 of NHERF1 and 26.8 ± 2.1 µM at PDZ2 of NHERF1 [4].

On to QEEWATVM [QEEWATVM], for which the dissociation constant Kd at PDZ1 of NHERF1 stood at 34.2 ± 0.5 µM; at PDZ2 of NHERF1 [4], 35.5 ± 2 µM.

For the molecule human Nle^8,18Tyr^34-PTH(1–34), the “phosphorylation of PTHR Thr591” value with PTHR is “promoted phosphorylation of Thr591”.

B1: FITC-labeled carboxy-terminal PTHR 9-residue peptide (peptide)
peptide: {FITC}-LQEEWETVM
With B1, the Kd in [5] was 2.4 µM; in test [6], 4.7 µM; in test [7] it was 0.6 µM; in test [8], 1 µM; in [9], 0.6 µM; in test [10], 1 µM. Moreover, the dissociation constant (Kd) in test [11] and in test [12] was 0.4 µM throughout.

B2: unlabeled carboxy-terminal PTHR 9-residue peptide (peptide)
peptide: LQEEWETVM
For B2, in test [13], the affinity, expressed as Ki, was 1.4 ± 0.9 µM.

B3: Thr-2/Cys-2 mutant of PTHRct-9 (peptide)
peptide: LQEEWECVM
Consider B3, for which the Ki in [13] came to 11 µM.

B4: wild-type PTHRct-8 peptide (peptide)
peptide: QEEWETVM
B4: in test [14], the Kd was found to be 9.7 µM, the dH was -21.6 kcal/mol and the “stoichiometry N” value is 1.13. In test [15], the Kd came out at 11.7 µM, the dH is -10.6 kcal/mol and the “stoichiometry N” value turned out to be 1.11.

B5: phosphorylated Thr-2-PTHRct-9 (peptide)
peptide: LQEEWE[pT]VM
In [13], B5 had a Ki of 121 µM.

B6: biotinylated carboxy-terminal 22-amino acid PTHR peptide (peptide)
peptide: Biotin-DEEASGPERPPALLQEEWETVM
The molecule B6 gave a Ki in [16] of 7 µM. In addition, the figures for the dissociation constant (Kd) in [17] and in test [18] were 11.5 µM and 16 µM, respectively. Also, the koff was determined as 0.393 s⁻¹ in test [19] and 0.606 s⁻¹ in [20]. Besides, the kon in test [19] came out at 57000 M⁻¹ s⁻¹; in [20] it was 14700 M⁻¹ s⁻¹.
